Experimental data published in PMC4326804.
“And” between values parts separate entries of the source, which are not always exact repeats. Equal values may be shown once.

How the values were obtained:
[1] = target: His6-tagged nucleocapsid (N) protein of tomato spotted wilt virus (TSWV) (tomato spotted wilt virus (Yunnan isolate)); test: cross-linking; 30 ug purified N protein with increasing glutaraldehyde, 37 °C for 5 min, quenched with Tris-HCl pH 7.5; 5-20% SDS-PAGE, Coomassie staining; self-association
[2] = target: free-tag TSWV N protein (tomato spotted wilt virus (Yunnan isolate)); test: native gel or EMSA; 4-16% discontinuous blue native PAGE at 4 °C, cathode buffer 100 mM histidine pH 8.0 with 0.002% Coomassie G-250; purified N protein without PEI treatment (carries E. coli RNA); self-association

Row | Substance | stoichiometry N [1] | stoichiometry N [2]
1 | His6-tagged nucleocapsid (N) protein of tomato spotted wilt virus (TSWV) (natural protein) | > 3 and 2 and 3 | 
2 | free-tag TSWV N protein (natural protein) |  | 2 and 3 and 4
